Here are results for 91 sequences from the supplement of paper PMC9112550, “Optimization of the antimicrobial peptide Bac7 by deep mutational scanning” (BMC Biology, 2022).
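Note: peptides expressed intracellularly from a pBAD plasmid library in pooled LB shake-flask culture, induced with 0.3% L-arabinose, DNA abundance read by NGS, three biological replicates, DESeq2 with apeglm shrinkage.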

In the series the test system is Escherichia coli TOP10. Kind of series: shrunken log2 fold change of peptide-encoding DNA abundance (4.5 h post-induction vs induction); higher = less antimicrobial activity (less host growth inhibition). Conditions: time post-induction: 4.5 h; library: site-saturation at positions 5, 18, 19, 20.
Consider RRIRVRPPRLPRPRPRPWHIPRP, for which the “shrunken log2 fold change” value was -0.127. The result for RRIRHRPPRLPRPRPRPTHKPRP reads 0.0457. Next, RRIRMRPPRLPRPRPRPMVNPRP: -0.254; RRIRQRPPRLPRPRPRPRNIPRP: -0.0833; RRIRNRPPRLPRPRPRPWFGPRP: -0.208. Next, RRIRGRPPRLPRPRPRPDNMPRP: -0.185. Take RRIRMRPPRLPRPRPRPICTPRP: the “shrunken log2 fold change” value stood at 0.153.

As for RRIRERPPRLPRPRPRPIENPRP, the “shrunken log2 fold change” value is 0.0371. The result for RRIRVRPPRLPRPRPRPWDRPRP reads 0.0372; that for RRIRNRPPRLPRPRPRPVNEPRP, -0.0227; that for RRIRCRPPRLPRPRPRPQSQPRP, 0.131. The result for RRIRLRPPRLPRPRPRPLGTPRP reads 0.18; that for RRIRFRPPRLPRPRPRPRYGPRP, -0.299; that for RRIRERPPRLPRPRPRPKNLPRP, 0.072. The result for RRIRQRPPRLPRPRPRPPWFPRP reads -0.018; that for RRIRPRPPRLPRPRPRPIVMPRP, -0.445; that for RRIRDRPPRLPRPRPRPVAMPRP, 0.633. RRIRQRPPRLPRPRPRPNTIPRP: the “shrunken log2 fold change” value amounted to 0.0518. RRIRCRPPRLPRPRPRPVYPPRP: the “shrunken log2 fold change” value was -0.559.

In the case of RRIRVRPPRLPRPRPRPINRPRP, the “shrunken log2 fold change” value was -0.239. As for RRIRLRPPRLPRPRPRPCNPPRP, the “shrunken log2 fold change” value was -0.000687. The result for RRIRHRPPRLPRPRPRPPQWPRP reads 0.0657. Next, RRIRIRPPRLPRPRPRPHTPPRP: -0.721; RRIRARPPRLPRPRPRPCWSPRP: -0.142; RRIRERPPRLPRPRPRPGGHPRP: 0.0363. In the case of RRIRWRPPRLPRPRPRPLAPPRP, the “shrunken log2 fold change” value was found to be 0.664.

Take RRIRLRPPRLPRPRPRPMDHPRP: the “shrunken log2 fold change” value was -0.00264. Next, RRIRHRPPRLPRPRPRPIFKPRP: -0.195; RRIRWRPPRLPRPRPRPLWHPRP: -0.0484. The result for RRIRCRPPRLPRPRPRPNRMPRP reads 2.23; that for RRIRCRPPRLPRPRPRPFVYPRP, -0.526. The result for RRIRMRPPRLPRPRPRPMDHPRP reads -0.00783; that for RRIRCRPPRLPRPRPRPSWKPRP, -0.0761. As to RRIRLRPPRLPRPRPRPMNQPRP, the “shrunken log2 fold change” value is -0.302.

In the case of RRIRPRPPRLPRPRPRPITNPRP, the “shrunken log2 fold change” value was -0.471. The result for RRIRYRPPRLPRPRPRPIIKPRP reads -1.25; that for RRIRERPPRLPRPRPRPAAEPRP, 0.0581. The result for RRIRHRPPRLPRPRPRPPETPRP reads 0.0733; that for RRIRYRPPRLPRPRPRPWTTPRP, -0.000803. Next, RRIRIRPPRLPRPRPRPNWEPRP: 0.00543. For the sequence RRIRARPPRLPRPRPRPNPMPRP, the “shrunken log2 fold change” value came to 0.287.

In the case of RRIRGRPPRLPRPRPRPRIAPRP, the “shrunken log2 fold change” value was 0.519. RRIRDRPPRLPRPRPRPCYQPRP: the “shrunken log2 fold change” value was -0.0177. The result for RRIRDRPPRLPRPRPRPREIPRP reads -0.00904; that for RRIRTRPPRLPRPRPRPNNFPRP, -0.381; that for RRIRGRPPRLPRPRPRPWLHPRP, 0.106. With RRIRFRPPRLPRPRPRPLGTPRP, the “shrunken log2 fold change” value worked out at 0.0158.

RRIRSRPPRLPRPRPRPAGTPRP: the “shrunken log2 fold change” value was 1.67. On to RRIRTRPPRLPRPRPRPTNMPRP, for which the “shrunken log2 fold change” value was -0.409.

For the sequence RRIRERPPRLPRPRPRPCRYPRP, the “shrunken log2 fold change” value is -0.00318.

Turning to RRIRSRPPRLPRPRPRPHCKPRP, the “shrunken log2 fold change” value is -0.397. Next, RRIRLRPPRLPRPRPRPKATPRP: -0.116; RRIRERPPRLPRPRPRPWLDPRP: 0.121.

On to RRIRYRPPRLPRPRPRPMNMPRP, for which the “shrunken log2 fold change” value is -0.139. Regarding RRIRCRPPRLPRPRPRPVWHPRP, the “shrunken log2 fold change” value amounted to 0.127. In the case of RRIRARPPRLPRPRPRPFQIPRP, the “shrunken log2 fold change” value was -0.0627. The result for RRIRNRPPRLPRPRPRPIMMPRP reads -0.103. Consider RRIRSRPPRLPRPRPRPTADPRP, for which the “shrunken log2 fold change” value amounted to 0.275. The result for RRIRFRPPRLPRPRPRPVYLPRP reads -0.721. The result for RRIRFRPPRLPRPRPRPNNSPRP reads -0.685; that for RRIRLRPPRLPRPRPRPETMPRP, 0.0125. The result for RRIRWRPPRLPRPRPRPGIWPRP reads 0.217. Take RRIRHRPPRLPRPRPRPAMMPRP: the “shrunken log2 fold change” value is -0.114. Next, RRIRHRPPRLPRPRPRPKAQPRP: 0.0148; RRIRDRPPRLPRPRPRPKRDPRP: 0.145. The result for RRIRWRPPRLPRPRPRPHAFPRP reads 0.154. Next, RRIRVRPPRLPRPRPRPWICPRP: -0.358; RRIRTRPPRLPRPRPRPWTSPRP: 0.0106. Turning to RRIRRRPPRLPRPRPRPTQVPRP, the “shrunken log2 fold change” value came to 0.677. On to RRIRDRPPRLPRPRPRPNWWPRP, for which the “shrunken log2 fold change” value amounted to 0.22.

As to RRIRKRPPRLPRPRPRPLFLPRP, the “shrunken log2 fold change” value is 0.115. In the case of RRIRRRPPRLPRPRPRPDFNPRP, the “shrunken log2 fold change” value was -0.155. On to RRIRTRPPRLPRPRPRPDHQPRP, for which the “shrunken log2 fold change” value is -0.0261. For RRIRGRPPRLPRPRPRPIWDPRP, the “shrunken log2 fold change” value was determined as 0.474. The result for RRIRERPPRLPRPRPRPYPFPRP reads -0.52; that for RRIRHRPPRLPRPRPRPMDWPRP, -0.177; that for RRIRYRPPRLPRPRPRPENSPRP, -0.0207. Next, RRIRFRPPRLPRPRPRPDSSPRP: -0.055. The result for RRIRLRPPRLPRPRPRPKWQPRP reads -0.0304; that for RRIRQRPPRLPRPRPRPCTFPRP, -0.121. Regarding RRIRGRPPRLPRPRPRPHCHPRP, the “shrunken log2 fold change” value turned out to be 0.284.

Turning to RRIRCRPPRLPRPRPRPFNSPRP, the “shrunken log2 fold change” value is 0.101. Turning to RRIRIRPPRLPRPRPRPTWDPRP, the “shrunken log2 fold change” value was 0.372. RRIRERPPRLPRPRPRPFFNPRP: the “shrunken log2 fold change” value is 1.38. The result for RRIRIRPPRLPRPRPRPRGDPRP reads 0.389; that for RRIRCRPPRLPRPRPRPFFRPRP, -0.116; that for RRIRSRPPRLPRPRPRPAWRPRP, 0.567.

Consider RRIRVRPPRLPRPRPRPYHMPRP, for which the “shrunken log2 fold change” value was -0.305. The result for RRIRGRPPRLPRPRPRPWLAPRP reads 0.0824. RRIRERPPRLPRPRPRPPAKPRP: the “shrunken log2 fold change” value amounted to 0.176. RRIRSRPPRLPRPRPRPWAIPRP: the “shrunken log2 fold change” value is -0.191.
